Binding data for 4 sequences are collected here from PMC4950008.

The series has as its target T1, His-GlnR (UniProt O53830).
T1 sequence: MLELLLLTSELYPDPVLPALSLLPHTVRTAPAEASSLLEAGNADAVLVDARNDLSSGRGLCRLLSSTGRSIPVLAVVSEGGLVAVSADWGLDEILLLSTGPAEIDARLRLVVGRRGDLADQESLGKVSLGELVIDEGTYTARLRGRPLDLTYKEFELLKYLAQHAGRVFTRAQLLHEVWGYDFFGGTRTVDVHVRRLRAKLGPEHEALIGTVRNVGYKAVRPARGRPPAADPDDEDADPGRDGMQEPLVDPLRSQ
Put plainly: EMSA.

Regarding “ACTCCCTGCGGCAAGGTGTAGGCCAGCTCGCGCAACTTAACCGCGCACTCGTAGAGCGTCTGGCGGAAATGCGTTTCGGTCATCGGGGTGCCTTCGCTCGTCGGCGAGATCGGCAGCGGTGTCTTGTGCTCATACAGATCAATCTCATTCATCAGAGCCATCATTCGCCGGCTAGCAGCTGCAAATCATCAGCACATCCACGTATGTC (double strand) [Rv1360 upstream region (negative control)]”, the binding result is listed as “no binding”.

“CACAGACTCCATCTGTTGGGGGTTCAACGGGGATTCAACCGGACACTTAGCGCCACTATTGAATATGAATATCATTTGAACGAGAGGTTAACACAGCGTGACGACGGCCCAGGGCGGTGAGTTTGGTCACACGAGCGCTGGGCTCACCACCCCATGCTGGTGGGATTTAGC (double strand) [peak 13, Rv1386 (PE15) promoter region]”: the binding result is reported as “binds”.

On to “CATGAGCTGATGAATGGAGTCCACTACCGGCCGGTGCGGCGACCAAGGATCTGTTTGCGACGGGATCTGTGCGACGTTGGCGGCAATCAGCTTGTTACAGCTGATAATCCGAGCGTGATCGCGACCTAACCGGCAGGCAACGCCGGCATGGTCCCCTGGCACGATGGGACTACTGTCACGCTTGCGCAAACGTGAGCCGATCAGCATCTACGACAAGATC (double strand) [peak 17, Rv1542c (glbN) promoter region]”, for which the binding result is reported as “binds”.

On to “GTACGTCCACAATCGAAGGACGCGGAAGCACGGGGCCGCGACCACCGAGACCCGTGGCGGCCCATGGCCGCAAGGAGGCTCCTCGCGAGATTCGTCACGCGTTACCTGGATTTAACCTGCGCCCGTCCGAAGCGCCCGGCTTTTTCGTAGGCTTCGCTGCGGTTGGGGCCAGACAGCGCCGTGAAGCCCGGTGGGTGTGGCCGGCTGACGGGATGGT (double strand) [peak 18, Rv1548c (PPE22)/Rv1549 (fadD11) promoter region]”, for which the binding result is “binds”.
